Key:
[1] = tested on: mice cough induced by ammonia water; experiment: Antitussive test, cough induced by ammonia water in mice; assay type: in vivo, ICR mice; settings: for Incubation period (cough) / Number of coughs: 10% ammonia water atomized 10 seconds one hour later, X ± SEM; for Number of coughs: coughs within 2 minutes
Experimental: Animals: male ICR mice; Drugs and reagents: dextromethorphan hydrobromide, ammonia water, 0.2% CMC-Na, protein BD-10; Apparatus: Compressed nebulizer (403T type), balance (XS105DU type). Experiment grouping: • Solvent control group; • Dextromethorphan 15 mg/kg group; • Protein BD-10, 20 mg/kg group, 50 mg/kg group.
Dextromethorphan and different doses of protein BD-10 (administration volume 10 ml/kg) were given orally in groups, and the solvent control group was given the same volume of distilled water. One hour later, mice were put into a sealed box and atomized 10% ammonia water for 10 seconds, and then observed and recorded the incubation period of cough in mice and the number of coughs in 2 minutes.
Record the time point of oral administration, the time point of atomization experiment, the incubation period of mice cough and the number of coughs within 2 minutes, respectively. The incubation period of cough refers to the number of seconds from the start of the atomization of ammonia to the occurrence of cough. The performance of coughing in mice is based on contraction of their abdominal muscles (breast contraction) and opening their mouths at the same time. Calculate the mean and standard error of each group of data, and use TTEST to compare the model group with other groups, and P<0.05 is considered as a significant difference.

[2] = tested on: yeast-induced fever model in rats; experiment: Yeast-induced fever model in SD rats; assay type: in vivo; settings: for Body temperature 2 hours after modeling / Body temperature 4 hours after modeling / Body temperature 6 hours after modeling / Body temperature 8 hours after modeling: 20% yeast suspension 10 ml/kg s.c., SD rats
Experimental: Animals: 230-260 grams of male SD rats; Medicines: yeast (OXOID LP0021), aspirin (SIGMA A2093), protein BD-10; Instruments: electronic balance (SARTORIUS BP121S type), electronic clinical thermometer (CITIZEN CT-513W type). Experiment grouping: • Normal control group; • Model group: yeast fever model; • Positive control group: Aspirin 300 mg/kg group; • Protein BD-10, 10 mg/kg group, 50 mg/kg group.
(§1) Preparation of experimental animals: After the experimental animals adapt to the experimental environment (temperature 22° C.±2° C., relative humidity 50%±2%) for 1 day. Pre-adaptation to measure rectal temperature at 8:00 and 15:00, rats were fasted and water was taken freely 12 h before experiment, and let the animal to empty its feces before measuring the rectal temperature. Apply petroleum jelly to the electronic thermometer probe before each temperature measurement. Insert the rat rectum 2 cm (can be marked at 2 cm to ensure that the depth of each insertion is consistent), and record the body temperature after the reading is stable.
(§2) Subcutaneous injection of dry yeast to replicate rat fever model: The body temperature of the rats was measured before modeling. Qualified rats with a body temperature of 36.2-37.3° C. were selected and randomly divided into groups with 8 rats in each group. After oral administration of aspirin and different doses of protein BD-10, 20% yeast suspension (10 ml/kg) was injected subcutaneously immediately, and the normal control group was injected intraperitoneally with an equal volume of normal saline. The body temperatures of the rats were monitored after 2 hours for a total of 8 hours.
(§3) According to the body temperature measured at each time point on the day of the experiment, calculate the mean, standard deviation and standard error of the body temperature of each group of rats. The data of each group was compared with TTEST, and P<0.05 was considered as a significant difference.

[3] = tested on: phenol red excretion in mice; experiment: Expectorant test, phenol red excretion method in mice; assay type: in vivo, ICR mice; settings: for Phenol red excretion: 2.5% phenol red i.p. one hour later, trachea after 30 minutes, X ± SEM
Experimental: Animals: male ICR mice; Drugs and reagents: Mucosolvan (ambroxol hydrochloride tablets), phenol red, sodium bicarbonate, protein BD-10; Instruments: centrifuge (Sigma-3K15 type), balance (XS105DU type), Microplate tester (BIO-TEK type). Experiment grouping: • Solvent control group; • Mucosolvan 30 mg/kg group; • Protein BD-10, 20 mg/kg group, 50 mg/kg group.
The animals were fasted and water was taken freely 16 hours before the experiment. Orally administered Mucosolvan and different doses of protein BD-10 (administration volume 10 ml/kg) in groups, and the solvent control group was given the same volume of distilled water. One hour later, 2.5% phenol red solution was injected intraperitoneally. Mice were sacrificed by neck dislocation after 30 minutes. Take a trachea from below the thyroid cartilage to the branch of the trachea, and put the trachea into 3 ml 5% NaHCO3 solution and let it stand for 3 hours. Take 1 ml of the supernatant and centrifuge at 3000 rpm for 5 minutes. Measure and record the absorbance at 546 nm. According to the standard curve of phenol red, the excretion of phenol red was calculated.
Record the time point of oral administration, the time point of intraperitoneal injection of 2.5% phenol red solution, and the time point of taking the trachea respectively; The absorbance of each group of samples was measured by the microplate reader at 546 nm, Calculate the excretion of phenol red according to the standard curve of phenol red. Calculate the mean and standard error of the data in each group, and use TTEST to compare the solvent control group with other groups, and P<0.05 is considered as a significant difference.

[4] = tested on: lipopolysaccharide (LPS) induced fever in SD rats; experiment: Lipopolysaccharide (LPS) induced fever model in SD rats; assay type: in vivo; settings: for Body temperature 2 hours after modeling / Body temperature 4 hours after modeling / Body temperature 6 hours after modeling / Body temperature 8 hours after modeling: LPS 20 μg/kg i.p., SD rats
Experimental: Animals: 230-260 grams of male SD rats; Drugs: lipopolysaccharide (LPS, SIGMA L-2880), aspirin (SIGMA A2093), protein BD-10; Instruments: electronic balance (SARTORIUS BP121S type), electronic clinical thermometer (CITIZEN CT-513W type).
Method: the method of intraperitoneal injection of Lipopolysaccharide to replicate rat fever model.
as §1
as §2, with “Intraperitoneal” for “Subcutaneous”, “lipopolysaccharide” for “dry yeast”, “lipopolysaccharide (20 μg/kg, 2” for “20% yeast suspension (10”, “intraperitoneally” for “subcutaneously”
as §3

B1: BD-10: recombinant keratin with amino acid sequence SEQ ID NO:1, expressed in E. coli inclusion bodies, band around 55 kD (protein, listed as Bos taurus)
chain: MSCRSYRISPGYSVTRTFSSCSAVAPKTGSRCCITAAPYRGVSCYRGLTGFGSRSVSALGSCGPRIAVGGFRAGSCNRSFGYRSGGVGGLSPPCITTVSVNESLLTPLNLEIDPNAQCVKHEEKEQIKNLNSRFAAFIDKVRFLEQQNKLLETKWQFYQNQRCCESNLEPLFNGYIETLRREAEHVEADGGRLASELNHVQEVLEGYKKKYEEEVALRATAENEFVVLKKDVDCAYLRKSDLEANVEALVEESNFLKRLYDEEIQILNAHISDTSVIVKMDNSRDLNMDCVVAEIKAQYDDIASRSRAEAESWYRNKCEEMKATVIRHGETLRRTKEEINELNRIIQRLTAEIENAKCQRTKLEAAVAEAEQQGEAALNDARCKLAGLEEALQKAKQDMACLLKEYQEVMNSKLGLDIEIATYRRLLEGEEQRLCEGVGSVNVCVSSSRGGVTCGGLTYSTTAGRQIASGPVATGGSITVLAPDSCVPCQPRASSFSCGSSRSVRFA
B1 was tested, and the “Incubation period (cough)” value ([1]; BD-10 20 mg/kg oral) was 31.4 ± 2.6 s, the Number of coughs ([1]; BD-10 20 mg/kg oral) was 55.3 ± 4.2 and the “Incubation period (cough)” value ([1]; BD-10 50 mg/kg oral) was 29.4 ± 3.0 s. The Number of coughs ([1]; BD-10 50 mg/kg oral) was 59.8 ± 3.9, the “Effect on incubation period and number of coughs (in words)” value ([1]; BD-10, dose not stated, not statistically significant) was “has a tendency to prolong the incubation period and reduce the number of coughs” and the “Body temperature 2 hours after modeling” value ([2]; BD-10 10 mg/kg oral) was 36.8 ± 0.05 °C. The “Body temperature 4 hours after modeling” value ([2]; BD-10 10 mg/kg oral) was 37.2 ± 0.1 °C, the “Body temperature 6 hours after modeling” value ([2]; BD-10 10 mg/kg oral) was 37.4 ± 0.1 °C and the “Body temperature 8 hours after modeling” value ([2]; BD-10 10 mg/kg oral) was 37.5 ± 0.1 °C. For the same molecule, the “Body temperature 2 hours after modeling” value ([2]; BD-10 50 mg/kg oral) was 37.0 ± 0.1 °C, the “Body temperature 4 hours after modeling” value ([2]; BD-10 50 mg/kg oral) was 37.4 ± 0.04 °C and the “Body temperature 6 hours after modeling” value ([2]; BD-10 50 mg/kg oral) was 37.4 ± 0.01 °C. The “Body temperature 8 hours after modeling” value ([2]; BD-10 50 mg/kg oral) was 37.4 ± 0.09 °C, the “Effect on increase in body temperature (in words, summary)” value ([2]; BD-10, dose not stated, 2, 4, 6 and 8 hours after modeling) was “can significantly inhibit the increase in body temperature” and the “Effect on body temperature of model rats (in words)” value ([2]; different doses of BD-10 (10, 50 mg/kg), most time points after modeling, vs model group P<0.05) was “can inhibit the increase in body temperature of model rats to varying degrees”. The “Effect on excretion of phenol red (in words)” value ([3]; BD-10 20 mg/kg and 50 mg/kg dose groups, vs solvent control group P<0.05) was “significantly increased the excretion of phenol red”, the Phenol red excretion ([3]; BD-10 20 mg/kg oral) was 0.746 ± 0.035 µg/mL and the Phenol red excretion ([3]; BD-10 50 mg/kg oral) was 0.668 ± 0.063 µg/mL. For the same molecule, the “Expectorant effect (in words, summary)” value ([3]; BD-10, dose not stated) was “has obvious expectorant effect”, the “Effect on body temperature of model rats (in words)” value ([4]; BD-10 10 mg/kg dose group, 2 hours after modeling, vs model group P<0.05) was “can significantly reduce the body temperature” and the “Body temperature 2 hours after modeling” value ([4]; BD-10 10 mg/kg oral) was 37.3 ± 0.1 °C. The “Body temperature 4 hours after modeling” value ([4]; BD-10 10 mg/kg oral) was 37.8 ± 0.1 °C, the “Body temperature 6 hours after modeling” value ([4]; BD-10 10 mg/kg oral) was 37.8 ± 0.1 °C and the “Body temperature 8 hours after modeling” value ([4]; BD-10 10 mg/kg oral) was 37.6 ± 0.1 °C. The “Body temperature 2 hours after modeling” value ([4]; BD-10 50 mg/kg oral) was 37.3 ± 0.2 °C, the “Body temperature 4 hours after modeling” value ([4]; BD-10 50 mg/kg oral) was 37.7 ± 0.2 °C and the “Body temperature 6 hours after modeling” value ([4]; BD-10 50 mg/kg oral) was 37.9 ± 0.2 °C. The “Body temperature 8 hours after modeling” value ([4]; BD-10 50 mg/kg oral) was 37.6 ± 0.1 °C and the “Effect on body temperature rise (in words, summary)” value ([4]; BD-10, dose not stated, 2 hours after modeling) was “has a significant effect of reducing body temperature rise”.

Reference: patent publication US20230146533A1, “KERATIN BD-10, PREPARATION METHOD THEREFOR AND PHARMACEUTICAL COMPOSITION AND USE THEREOF” (INSTITUTE OF MATERIA MEDICA, CHINESE ACADEMY OF MEDICAL …, priority 2019, published 2023)
